Data taken from patent US12703739 (VANDERBILT UNIVERSITY, dated 2026).

B1: RVFV-436 (antibody, V domains shown)
VH: QVQLHESGPGLVKPSETLSLTCGVSGYTISSDYYWGWIRQPPGKGLEWIGSIYQNGHTYYNPSLKSRVTISVDTSKNQFSLELSSVTAADTAVYYCARRGDCGADCYHFDYWGRGTAVTVSS
VL: SYEVTQPLSVSVSPGQTASITCSGEKLENKYVSWYQQKPGQSPVLVMYQDFKRPSGIPERFSGSNSGNTATLTISGTQAMDEADYYCQAWDRSTFYVFGTGTKVTVVG
B2: RVFV-429 (antibody, V domains shown)
VH: QVQLVQSGAEVKKPGSSVKVSCRASGGTFSSYTISWVRQAPGQGLEWMGGIIPILGLTKFAQKFQDRVTITADISATTTYMELSSLTSEDTAVYYCARNGEQLEWSYYYGMDVWGQGTTVTVSS
VL: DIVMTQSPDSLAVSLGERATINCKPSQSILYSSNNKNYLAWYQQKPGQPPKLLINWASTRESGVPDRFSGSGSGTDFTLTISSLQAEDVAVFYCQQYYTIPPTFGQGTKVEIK
B3: RVFV-226 (antibody, V domains shown)
VH: EVQLVESGGGLVQPGRSLRLSCAASGFTFDDYAMHWVRQAPGKGLEWVSGISWNSGSIGYVDSVKGRFTISRDNAKNSLYLQMNSLRAEDTALYYCAKGLVGAIHDAFDIWGQGTMVTVSS
VL: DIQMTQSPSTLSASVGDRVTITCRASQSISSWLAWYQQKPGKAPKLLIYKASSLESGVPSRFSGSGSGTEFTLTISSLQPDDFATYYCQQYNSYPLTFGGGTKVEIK
B4: RVFV-405 (antibody, V domains shown)
VH: EVQLVESGGGLVQPGGSLRLSCAASGFTFSSFEMNWVRQAPGKGLEWVSYISRSGTTKHYADSVKGRFAISRDDAKNSLYLQMNSLRAEDTAVYYCARGGARVLQAPLDYWGQGTLVTVSS
VL: SYELTQPPSVSVAPGETARITCGGTNIGNKSVRWYQQKPGQAPVLVIYYDNDRPSGIPERFSGSNSGNTATLTISRVEAGDEADYYCQVWDNSSDHAVFGGGTKLTVL
B5: RVFV-401 (antibody, V domains shown)
VH: QITFKESGPTLVKPTQTLTLTCTFSGFSLSTSGVGVGWIRQPPGKALEWLALLYWNDDKRYTPSLRSRLTITKDTSKNQVVLTMTDMDPVDTATYYCARKPRDDFLRLTMMGGGDYFDYWGQGTLVTVSS
VL: SYELTQPPSVSVSPGQTARITCSGDALPDQYAYWYQQKPGQAPVLVLYKDNERPSGIPERFSGSTSGTTVTLTISGVQAEDEADYYCQSADTSTAYHVIFGGGTKLTVL
B6: RVFV-381 (antibody, V domains shown)
VH: QEQLVESGGGVVQPGRSLRLSCAASGFTLRGYGIYWVRQAPGKGLEWVAVISHDGKNESYTDSVKGRFSISRDKSKNTVFLQMNSLTTQDTSVYYCARWTEGSEEFYYHGLDVWGQGTTVTVSP
VL: SYELTQPPSVSVSPGQTARITCSGHLLPKQYAYWYQQKPGQAPTLVIYADYNRASGIPERFSGASSGTTVTLTITGVKAEDQADYYCQSIDNRFHYPMIFGGGTKLTVL
B7: RVFV-296 (antibody, V domains shown)
VH: QVQLVQSGSELKKSGASVKVSCRASGYTFTTYVMNWVRQAPGQGLEWMGWINTNTGNPTYAQGFTGRFVFSLDTSVSTAYLQINSLKAEDTAVYYCAREYNSFDYWGQGTLVTVSS
VL: QSVLTQPPSVSGAPGQRVTISCTGSSSNIGAGYDVHWYQQLPGTAPKLLIYDNNNRPSGVPDRFSGSRSGTSTSLAITGLQAEDEADYYCQSYDFRLSGSVFGGGTKVTVL
B8: RVFV-426 (antibody, V domains shown)
VH: QVQLQESGPGLLKPSQTLSLTCGVSGDSITSTGDSWTWIRQPPGKGLEWIGYIYYSGSAYYNPSLKSRVTISVDTSKNQFSLRLRSVTAADTAVYYCARALEYGAGSWAAAFWGQGILVTVSS
VL: SYEVTQPPSVSVSPGQTASITCSGDKLVERYVSWYQQKPGQSPLLVIYHDIKRPSGIPERFSGSNSGNTATLTISGTQPMDEADYYCQAWDSSTVLFGGGTKLTVL
B9: RVFV-379 (antibody, V domains shown)
VH: QVQLQESGPGLVKPSQTLSLTCTVSGDSISGGDYYWSWIRRPAGEGLEWIGRVHTTGSTDYNPSLRTRVTISIDTSKNHFFLKMTSVTAADTAVYYCAREGDYSAWFDPWGQGALVTVSS
VL: DIQMTQSPSSLSASIGDRVTITCRASQHIESFLNWYQQKPGKAPKLLIYIASTLQGGVPSRFSGRGFGTDFTLTINSLQPEDFATYYCQQSYTISPITFGQGTRLEIK
B10: RVFV-326 (antibody, V domains shown)
VH: EAQLVESGGGLVKPGGSLRLSCAASGFSFSYAWMSWVRRLPGKGLEWVGRIKGKADGETTDYAAPVKGRFTISRDDSKTTVYLQMNTLKIEDTGVYYCTTDIGDFYDSIGYSYTDYWGQGTLVTVSS
VL: EIVLTQSPATLSLSPGERATLSCRASQSVSSYLAWYQQKPGQAPRLLIYDASNRATGIPVRFSGSGSGTDFTLTISSLEPEDFALYYCQQRSDWPPTFGQGTKVEIK
B11: RVFV-121 (antibody, V domains shown)
VH: QMQLQESGPGLVKPSGTLSLTCAVSGDSISTSTWWSWVRQSPGKGLEWIGEIYHSESTNYNPSLKSRVSLSLDKSKNQLSLRLSSVTAADTGVYYCARGSLVFDYWGQGAQVVVSS
VL: EIVMTQSPATLSVSPGERATLSCRASQSVSSNLAWYQQKPGQAPRLLIYAASTRATGIPARFSGSGSGTEFTLTISSLQSEDFAVYYCQQFNNWPRTFGQGTKVEIK
B12: RVFV-249 (antibody, V domains shown)
VH: QVLLVQSEAEVRKPGASVKISCKTSGYTFTTYFMHWVRQAPGQGLEWVAIVDPSTGNTGYAQRFQGRVTVTRDTSTGTLFMELTSLTTEDTAMYYCGRDRGSRAVDSWGQGTLVTVFS
VL: QSVLTQPPSVSGAPGQRVTISCSGSSSNVGPNTVSWYQQLPGVAPKLLIYRNNQRPSGVPDRFSGSKFGTSASLVIGGLQSEDEADYYCAAWDDSLNGHMVFGGGTKVAVL
B13: RVFV-250 (antibody, V domains shown)
VH: QVQLQESGPGLAKPSETLSLTCTVSGGSISSYFWSWIRQPAGKGLEWIGRIHTTGSTNYNPSLKNRVIMSVDTSKNQFSLNLSSVTAADTAVYYCAREGTAFDIWGQGTMVTVSS
VL: SYELTQSPSVSVSPGQTASIPCSGDKLGDKYACWYQQKPGQSPVLVIYQDTKRPSGIPERFSGSNSGNTATLTISETQAMDEADYYCQAWDSSTPWVFGGGTKLTVL

molecular target: Gn of RVFV-MP-12 (Rift Valley Fever Virus strain MP-12); experiment: cell-based or functional assay

Row | Binder | IC50 (ng/ml), neutralization of RVFV-MP-12 [ng/mL]
1 | B1 | 2.5
2 | B2 | 0.9
3 | B3 | 7690
4 | B4 | 30000
5 | B5 | 2120
6 | B6 | 4440
7 | B7 | 638
8 | B8 | 9.1
9 | B9 | 1.3

molecular target: Gc of RVFV-ZH501 (Rift Valley Fever Virus strain ZH501); experiment: cell-based or functional assay

Row | Binder | Fold-Change ZH501/MP-12 (ratio of neutralization IC50s) [fold] | IC50 (ng/ml), neutralization of RVFV-ZH501 [ng/mL]
10 | B10 | 15.9 | 1110
11 | B11 | 31.7 | 1110
12 | B12 | 4.4 | 30000
13 | B13 | 2.4 | 120

molecular target: Gc of RVFV-SA51 (Rift Valley Fever Virus strain SA51); experiment: cell-based or functional assay

Row | Binder | IC50 (ng/ml), neutralization of RVFV-SA51 [ng/mL]
14 | B10 | 370
15 | B11 | 1110
16 | B12 | 30000
17 | B13 | 120

molecular target: Gn of RVFV-SA51 (Rift Valley Fever Virus strain SA51); experiment: cell-based or functional assay

Row | Binder | IC50 (ng/ml), neutralization of RVFV-SA51 [ng/mL]
18 | B1 | 4.57
19 | B2 | 4.57
20 | B3 | 3330
21 | B4 | 30000
22 | B5 | 1110
23 | B6 | 10000
24 | B7 | 120
25 | B8 | 120
26 | B9 | 13

molecular target: Gn of RVFV-ZH501 (Rift Valley Fever Virus strain ZH501); experiment: cell-based or functional assay

Row | Binder | Fold-Change ZH501/MP-12 (ratio of neutralization IC50s) [fold] | IC50 (ng/ml), neutralization of RVFV-ZH501 [ng/mL]
27 | B1 | 1.8 | 4.57
28 | B2 | 5.1 | 4.57
29 | B3 | 1.3 | 10000
30 | B4 | 1 | 30000
31 | B5 | 0.2 | 370
32 | B6 | 2.3 | 10000
33 | B7 | 0.2 | 120
34 | B8 | 4.5 | 41
35 | B9 | 3.5 | 4.57

molecular target: Gc of RVFV-MP-12 (Rift Valley Fever Virus strain MP-12); experiment: cell-based or functional assay

Row | Binder | IC50 (ng/ml), neutralization of RVFV-MP-12 [ng/mL]
36 | B10 | 70
37 | B11 | 35
38 | B12 | 6790
39 | B13 | 51
